Test results: patent US20190175744A1, “INSULIN-INCRETIN CONJUGATES” (Merck Sharp & Dohme Corp., priority 2016, published 2019)

Key:
[1] = molecular target: human insulin receptor (IR), CHO cell line overexpressing human IR (pAkt assay) (human) (UniProt P06213); experiment: cell-based or functional assay
[2] = molecular target: minipig insulin receptor (IR) (minipig); experiment: cell-based or functional assay

Insulin Receptor pAK Assay EC50, Human [1] | Insulin Receptor pAK Assay EC50, Minipig [2] | Substance
0.48 nM | – | Insulin degludec (ligand)
0.51 nM | 0.5 nM | Insulin levemir (ligand)
